Laboratory results: the DeepSol protein solubility set

assay: soluble on expression in E. coli; label from the status in PepcDB or PDB records

Sequence | soluble on expression in E. coli
MKLKHKRDDKMRFDIKKVLELAEKDFETAWRETRALIKDKHIDNKYPRLKPVYGKPHPVMETIERLRQAYLRMGFEEMINPVIVDEMEIYKQFGPEAMAVLDRCFYLAGLPRPDVGLGNEKVEIIKNLGIDIDEEKKERLREVLHLYKKGAIDGDDLVFEIAKALNVSNEMGLKVLETAFPEFKDLKPESTTLTLRSHMTSGWFITLSSLIKKRKLPLKLFSIDRCFRREQREDRSHLMSYHSASCVVVGEDVSVDDGKVVAEGLLAQFGFTKFKFKPDEKKSKYYTPETQTEVYAYHPKLGEWIEVATFGVYSPIALAKYNIDVPVMNLGLGVERLAMIIYGYEDVRAMVYPQFYEYRLSDRDIAGMIRVDKVPILDEFYNFANELIDICIANKDKESPCSVEVKREFNFNGERRVIKVEIFENEPNKKLLGPSVLNEVYVYDGNIYGIPPTFEGVKEQYIPILKKAKEEGVSTNIRYIDGIIYKLVAKIEEALVSNVDEFKFRVPIVRSLSDINLKIDELALKQIMGENKVIDVRGPVFLNAKVEIK | soluble
MLVNGALSTTGSFGQTVKYLQPHYNLVLFDLPFSGQSRAHNPDEMIVSKEDEVQILLQLIDLYQVNYLLSVSWGGVSALLALAQCPASVEKAIISSFSPVLNEPMLDYIDKAQVYLAAREKRKIGSLLNDTVGKHLPRLFKLYNYKHLIGLAEHEYGQIDFHISQIRTLSASNYVERFSSIKIPVLFINGEKDEYTTVEDARMFSNYIAKSSFNVVPDTGHFLDLESKAAWHHSQKTALSFLGT | not soluble
MGSDKIHHHHHHAQIKFRNHSVSVVSLNYDASNKTMLFRQGEEMMEMTNPAQVDTVIIGKRKFVPVGRGFYEVVCRKEGVVYIDWLLKDVNIGSKGALGTVTQGSVKNLQMSDLGLNGTEMYTPYERQKIGSTEVYRRKNDNTYYIKVEGKLEKVKSLKHLEKIFIGHKDEIRKFAKDHKIDMKDILDVFSILDYCMELEQ | not soluble
GIDPFTKANSEACRDGLRAVMECRNVTHLLQQELTEAQKGFQDVEAQAATCNHTVMALMASLDAEKAQGQKKVEELEGEITTLNHKLQDASAEVERLRRENQVLSVRIADKK | soluble
MSLGIKVVLLEKAHEIGEIGAGIQLGPNAFSALDSLGVGEVARQRAVFTDHITMMDAVNAEEVVCIETGQAFRDHFGGPYAVIHRVDIHASVWEAVLTHPDVEYHTSTNVVDIRETEDDVTVFDDRGNSWTGDILIGCDGVKSVVRQSLLGDAPRVTGHVVYRAVIDRADMPEDLRINAPVLWAGPHCHLVHYPLRGGKQYNLVVTFHSRQQEEWGVKDGSKEEVLSYFEGIHPRPRQMLDKPTSWRRWSTADREPVAKWGTKRITLVGDSAHPVAQYMAQGACMALEDAVTLGKALAQCEGDAAQAFALYESVRIPRTARIVWSTREMGRVYHAAGVERQVRNLLWKGKSQAEFYRGMEWLYGWKEDNCLQPREGHHHHHH | not soluble
MSLIEPDHPQLSIGQQCKLLSISRSSFYYTPKGETDQNLSLMRQIDEQFLETPFFGVRQMTWHLRNEHHLVNEKRIRRLMRLMGLMPIYQKPNNTSRPGRGHKTYPYLLRGLRVDRPNQVWCSDITYLPMRRGFLYLVAIMDWHTRKVLAWRISNTLEADFCVEALNEAIHKFGPPEIMNTDQGSQFTSFAWTDRLRRSGVRISMDGKGRFLDNIFIERLWRTLKYECVYLHAWETGSEAKAGIRKWMTFYNSASLRPSFYVVEGNRFCEGHHHHHH | not soluble
MSLTSSDVRNKYNFNSDWLLYVGDVPEAKQPRFSDSEWKKVTLPHAFNEDEAFRLSIDELTDTIMWYRKHFRLPANSKNKKVFVEFEGVRQGADFYINGQNVGLHENGVMAVGFDLTPYIKYGQENVIAVRIDNDWNYKERATGTKYQWSNKNFNANYGGIPKNVWLHVTDRLYQTLPLYSNLKTTGVYIYAEDIRVKSRKAIIHAESEIRNEYNRDKQVSYQVELIDRDGTSIQTFEGTKAVVKPGETITLKAASEVDNLHFWSWGYGYLYTVKTSLWVDGRKVDEVATRTGFRKTRFGKGMIWLNDRVIQMKGFAQRTSNEWPGVGMSVPAWLSDYSNHLMVEGNANLVRWMHVTPWKQDIESCDRVGLIQAMQAGDAEKDCEGRQWEQRTELMRDAIIYNRNNPSILFYECGNESISREHMIEMKAIRDLYDPHGGRAIGSREMLDIREAEYGGEMLYINKSAHHPMWAMEYCRDEGLRKYWDDYSYPYHKDGDGSNSYKSTVTNKVQKKVDARVYNRNQDSFTIENIIRWFDYWRERPGTGDRVSSGGVKIIFSDTNTHYRGVENYRRSGVTDAMRIPKDPFFAHQVMWDGWVDTECPRIYIVGHWNYNDTVVKPVYVVSSADKVELFLNGKSLGYGEQDYHFLYTFKDIAFVPGRLEAVGYDENGKECCRTQLQTAGKPEQIQLSFIQSPEGWKADGADMVLLQVEVMDKDGNRCPLANDLIHFEVEGPAEWRGGIAQGENNYILSKDLPVECGINRALIRSLTTAGNVRITAKADGLKPAEISLTSSPVEVKNGLSNYIPGDELEGRLTRGETPQTPSYKVSKVDVGIVSAIAGANNESTVNSFDDNELSEWRNDGKAATAWITYKLERAARVDEVCMKLTGWRMRSYPLEIYAGKELIWSGDTDKSLGYVHLDVKPVLTNEITIRLKGTSKEGDAFGQIVEVAAPVANELDLFKAKDGDKTGHELRIVEIEFKENLLKEGHHHHHH | soluble
MAVTKELLQMDLYALLGIEEKAADKEVKKAYRQKALSCHPDKNPDNPRAAELFHQLSQALEVLTDAAARAAYDKVRKAKKQAAERTQKLDEKRKKVKLDLEARERQAQAQESEEEEESRSTRTLEQEIERLREEGSRQLEEQQRLIREQIRQERDQRLRGKAENTEGQGTPKLKLKWKCKKEDESKGGYSKDVLLRLLQKYGEVLNLVLSSKKPGTAVVEFATVKAAELAVQNEVGLVDNPLKISWLEGQPQDAVGRSHSGLSKGSVLSERDYESLVMMRMRQAAERQQLIARMQQEDQEGPPT | soluble
MAIGFICSSPDAELFSEKSRMSSSVLLGCLLCCMDWSAAVPGKTEPFRKLFDAIMIKKLKSCSAAYPSDLDEGSMCDMADASPTSLELGLSKLDKES | not soluble
MSLSSVRDKYNFNSEWLLYVGDTPEAKEVRFQDTDWKKVTLPRPFNEDEAFRLSIEQLTDTVMWYRKHFRLPADSKNKKVFVEFEGVRQGADFYINGEYIGLHENGAMAVGFDLTPYIKYGQENVMAVRIDNNWNYKERATGTKYQWSDRNFNANYGGIPKNVWLHVTDKLYQTLPLYSNLKTTGVYIYAEDIRVKSRKAVVHAESEIKNEYNRDKKVAYKVEVFDRDGKSIKSFEGTQTVVKPGETATLEASAEIDGLHFWSWGYGYLYTVKTSLWVDGRKVDEVATRTGFRKTRFGKGMIWLNDRVIQMKGFAQRTSNEWPGVGMSVPAWLSDYSNGLMVEDNANLVRWMHITPWKQDIESCDRVGLIQAMQAGDAEKDREGRQWEQRTELMRDAIIYNRNNPSILFYECGNESISREHMIEMKAIRDKYDPHGGRAIGSREMLDIREAEYGGEMLYINKSKHHPMWAMEYCRDEGLRKYWDEYSYPYHKNGEGNNSFRSAMTNKVQKKVDARAYNHNQDSFTIENVIRWFDYWRERPGTGDRVSSGGVKIIFSDTNTHYRGVENYRRSGVTDAMRIPKDPFYAHQVMWDGWVDIENPRIHIVGHWNYKEDVVKPVYVVSSAEKVELFLNGKSLGNGQRDYHFLYTFKDVAFVPGKLEAVGYDKNGKECCRAELQTAGKPEQIKLSVIQSPKGWKADGADMVLLQVEVMDKDGRRCPLANDLIHFDVEGPAEWRGGIAQGKDNYILSKDLPVECGINRALIRSLTTPGAVRITAKADGLQSAEISLSSAPVEVKNGLSNYIPGDELEGRLTRGETPLTPSYKDTKVDVNILSAVAGANQDETIKSFDDNELSEWKNDGRLNSAWITYSLERAARVDEICMKLTGWRLRSYPLEIYAGDELIWSGETEKSLGYIHLNVKPVLTNEITIRLKGASKEGDGFGQIVEVAAPAAGELDLFKAKNGDKTNHELRIVEIEFKENLWQEGHHHHHH | soluble
EQKVEAFNIQYKSRTSFKVQVKLNAQGKYQKSQVQSYLQQIGLNDGDLKQESGTLSADLIFTYTVPESNLFSRKNFDTLMKKINFNTTLKIDMVGKDEIMKKILQSTTFTNNLSSQTFQDQSIDLLPYLLYS | not soluble
MSLGKIRFGIVGTSNIANIFLRAASRVKDFELVAVYSRNLEKAREFGTLYGASIFFDDLEQMAKSKDIDAVYIASPNALHSKQTITCLKHKKHVLCEKSLASNLKEVKSMIKTAKDNNVLLMEAMRITCVPNFKAVKENLYKIGKIRRFFGSYCQYSSRYDKYKNGIIENAFKKELSNGALMDIGVYCIHPMVNLFGAPKTVKAVSHILQTGVDGEGSAVFQYDDMDAIIQYSKVADSYIPSEIQGEEGSIIIEKLNLFEKAIIKYRDGREEDISIPKEKAEEKPREIEGMYYELVEFISLINNNKIESNINSHENSIIVMEIMDEIRRQSSIVYPADSEGHHHHHH | soluble
MSLAQFTTNPQRFDPYKNFKFRIKWGADYVAGVSKISGLKRTTEVVKHREGGDPSSSRKSPGRTEYEAITMERGVTHDVAFEQWANKVWNYGSGLGKEVSLADFRKDLVIEVYNEAGQAAMRYKVFRCWVSEFQSMSDLDANGNAVLIQHLKLETEGWERDYDLVEPKEGTFTEPAEGHHHHHH | soluble
MAELSDQEMLRYNRQIILRGFDFEGQEALKDARVLVVGLGGLGCAATQYLAGAGVGQLTLLDFDTVSVSNLQRQTLHSDATVGQPKVESARDALARINPHITITPVNARLDDDAMTSLIAGHSLVLDCTDNVSVRNQLNAGCYTAKVPLISGAAIRMEGQVTVFTYRENEPCYRCLSRLFGENALTCVEAGVMAPLIGVIGSLQAMEAIKLLAHYGQPASGKIVMYDAMTCQFREMKLMRNPGCEVCGQ | not soluble
GSGGIEGRHMVELLKLVRSSGCAAKVGPGDLQEILKGFNIYTDESTLVSIGDDAGVYEHNGIIWVYTVDIITPVVNDPYLWGAISTANALSDVYAMGGIPVNALAISCFNNCELDIEIFREVIRGALDKLREAKTVLLGGHTIDDKEPKFGLSVAGICPEGKYITQSGAQVGQLLILTKPIGTGILIKGLKEGILKEEDINEAIENMLALNDKARNLMLSLDATACTDVTGFGLLGHAWNICKNSNIGARIFFEKVPYYQLSENLVKKKIYPKGAIENLNFVKNYLKSNLDNWKLILLSDPVTSGGLLFTINKEKLEKIDETAKELEVNYWIIGETIAENVLEVL | soluble
KGATFKEAEEHYHINALYLLAHSALESNWGRSKIAKDKNNFFGITAYDTTPYLSAKTFDDVDKGILGATKWIKENYIDRGRTFLGNKASGMNVEYASDPYWGEKIASVMMKINEKLGGKD | not soluble
MGSDKIHHHHHHMTKLDSFHLGELYRELRVARGLKMKDVVSDKLSQAQLSKFENGQTMLSADKLLTAISAIHMSFAEFEHAYYQYEDSSFFKQAKLISKYHSNKNIEGLEKLLIIHDNNSETYDVYDKLNKLVIRCAIHDLNPEYIISDDDKDFITTYLYSIEEWTEYELYIFGNTLQVLSDSDLIFLSKSFIERDSLYLSIPNNNFRTQLVVLNIIFVLLERKKDYCVHYFMKHLESILTYQDMFVKTVLIFLKKVLNYREGKGTHLIDLKKYIHDVEELGHEDVAEFLKDNIVNLL | not soluble
